Measured values reported in publication doi:10.1101/2021.06.03.446569 (bioRxiv, 2021).
Read-outs that look alike come from different tables or passages of the source. Ends that are not written are not given here. * marks the point of attachment. FITC = O=C1OC2(c3ccc(O)cc3Oc3cc(O)ccc32)c2ccc(NC(=S)*)cc21

Key:
Assay in all cases: fluorescence polarisation
[1] = biological target: Human P300 KIX domain (EP300 KIX domain) (human) (UniProt Q09472)
[2] = biological target: CBP KIX domain (CREBBP KIX domain) (human) (UniProt Q92793)
CBP KIX domain (CREBBP KIX domain) (human), sequence (Q92793 585-672): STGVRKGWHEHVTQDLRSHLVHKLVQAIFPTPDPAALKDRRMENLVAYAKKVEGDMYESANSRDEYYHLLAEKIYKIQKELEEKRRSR

[3] = biological target: Human P300 KIX domain (EP300 KIX domain) (human) (UniProt Q09472); remark: listed apart in the source
[4] = biological target: CBP KIX domain (CREBBP KIX domain) (human) (UniProt Q92793); remark: listed apart in the source
[5] = biological target: Human P300 KIX domain (EP300 KIX domain) (human, UniProt Q09472 565-652)
Human P300 KIX domain (EP300 KIX domain), sequence (Q09472 565-652): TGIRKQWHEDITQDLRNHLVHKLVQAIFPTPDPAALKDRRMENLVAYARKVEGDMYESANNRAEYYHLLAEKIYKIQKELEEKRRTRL

[6] = biological target: CBP KIX domain (CREBBP KIX domain) (human, UniProt Q92793 585-672)
CBP KIX domain (CREBBP KIX domain), sequence (Q92793 585-672): as the sequence (Q92793 585-672) above

Human P300 KIX domain (EP300 KIX domain) (human), sequence (Q09472 565-652): as the sequence (Q09472 565-652) above

Molecule | IC50 [1] [µM] | IC50 [2] [µM] | IC50 [3] [µM] | IC50 [4] [µM] | Kd [5] [µM] | Kd [6] [µM]
MLL28MYB30 (M/M) fusion peptide, purified | 8.5 | 22 | 8.3 | 23 | – | –
SDDGNILPSDIMDFVLKNTPSMQAL (also: rhodamine label, position not given here) [Rhodamine-labelled MLL peptide (MLL25)] | – | – | – | – | 40 ± 14 | 94 ± 11
{FITC}-KEKRIKELELLLMSTENELKGQQAL [FITC-labelled MYB peptide (MYB25)] | – | – | – | – | 3.8 ± 0.2 | –
